Measurements from article PMC9618391 (2022).

B1: wild-type human sodium/iodide symporter (hNIS) [human] / μ1B (AP1M2) expressed from cDNA in COS-7 cells [not stated] (parent complex)
chain 1: MEAVETGERPTFGAWDYGVFALMLLVSTGIGLWVGLARGGQRSAEDFFTGGRRLAALPVGLSLSASFMSAVQVLGVPSEAYRYGLKFLWMCLGQLLNSVLTALLFMPVFYRLGLTSTYEYLEMRFSRAVRLCGTLQYIVATMLYTGIVIYAPALILNQVTGLDIWASLLSTGIICTFYTAVGGMKAVVWTDVFQVVVMLSGFWVVLARGVMLVGGPRQVLTLAQNHSRINLMDFNPDPRSRYTFWTFVVGGTLVWLSMYGVNQAQVQRYVACRTEKQAKLALLINQVGLFLIVSSAACCGIVMFVFYTDCDPLLLGRISAPDQYMPLLVLDIFEDLPGVPGLFLACAYSGTLSTASTSINAMAAVTVEDLIKPRLRSLAPRKLVIISKGLSLIYGSACLTVAALSSLLGGGVLQGSFTVMGVISGPLLGAFILGMFLPACNTPGVLAGLGAGLALSLWVALGATLYPPSEQTMRVLPSSAARCVALSVNASGLLDPALLPANDSSRAPSSGMDASRPALADSFYAISYLYYGALGTLTTVLCGALISCLTGPTKRSTLAPGLLWWDLARQTASVAPKEEVAILDDNLVKGPEELPTGNKKPPGFLPTNEDRLFFLGQKELEGAGSWTPCVGHDGGRDQQETNL
chain 2: MSASAVFILDVKGKPLISRNYKGDVAMSKIEHFMPLLVQREEEGALAPLLSHGQVHFLWIKHSNLYLVATTSKNANASLVYSFLYKTIEVFCEYFKELEEESIRDNFVIVYELLDELMDFGFPQTTDSKILQEYITQQSNKLETGKSRVPPTVTNAVSWRSEGIKYKKNEVFIDVIESVNLLVNANGSVLLSEIVGTIKLKVFLSGMPELRLGLNDRVLFELTGRSKNKSVELEDVKFHQCVRLSRFDNDRTISFIPPDGDFELMSYRLSTQVKPLIWIESVIEKFSHSRVEIMVKAKGQFKKQSVANGVEISVPVPSDADSPRFKTSVGSAKYVPERNVVIWSIKSFPGGKEYLMRAHFGLPSVEKEEVEGRPPIGVKFEIPYFTVSGIQVRYMKIIEKSGYQALPWVRYITQSGDYQLRTS

Variants of: B1
Test: co-immunoprecipitation with Western blot quantification; COS-7 cells cotransfected with hNIS and μ1B; IP α-μ1B, WB α-hNIS; parent: 100; read off a plot

| Variant | percent of parent |
| --- | --- |
| chain 1 Y120A | ~83 % Relative to hNIS WT |
| chain 1 L583A | ~5 % Relative to hNIS WT |
| chain 1 L587A | ~100 % Relative to hNIS WT |
| chain 1 L121A | ~60 % Relative to hNIS WT |
| chain 1 Y118A | ~61 % Relative to hNIS WT |
| chain 1 L594A | ~84 % Relative to hNIS WT |
| chain 1 L562A, chain 1 L563A | ~32 % Relative to hNIS WT |
